Data set [1] concerns the target KSHV LANA DNA binding domain, kLANA_(1008–1150) (KSHV). Description: SEC.
Data set [2] shares this target. The data set is described as follows: SAXS.
The target in data set [3] is MHV-68 LANA DNA binding domain, mLANA_(124–314) (MHV-68). The data set is described as follows: SAXS.
Data set [4] has the same target. Description: SEC. (In general: Size exclusion chromatography separates by hydrodynamic size, large species first.)
Data set [5] shares this target. The data set is described as follows: SAXS. This is another data set of the same source.
Data set [6] addresses kLANA_(k1109E, A1121E) (KSHV). Description: SEC.
Data set [7] concerns the target kLANA_(k1109E, A1121E) (KSHV). The data set is described as follows: SEC. The source holds these as a separate data set.
Data set [8] deals with KSHV LANA DNA binding domain, kLANA_(1019–1150) (KSHV). The data set is described as follows: crystal structure.
For data set [9] the target is unchanged. Description: SEC; gel filtration in the presence of 1 M NaCl.
The target in data set [10] is kLANA_(1008–1150 (K1109E)) (KSHV). Description: SAXS.
For data set [11] the target is unchanged. Description: SEC.
The target of data set [12] is mLANA DBD (Murine gammaherpesvirus 68 (MHV-68)) (UniProt O41974). Description: ITC.

The values below come from publication PMC4787769.

Values joined by “and” are separate entries in the source; they are usually repeats but may differ in a detail not shown here. Equal values may be shown once. Read-outs that look alike come from different tables or passages of the source. Where only a bound is given, the exact number is not on record here.

“KSHV LANA DNA binding domain, kLANA_(1008–1150) (domain or fragment)”: the stoichiometry N (as a rule, the number of molecules, sites or subunits per partner or assembly) in data set [1] was 2 and 4. Further, in data set [2], the percent of the mixture present as octamer with two kLBS1–2 DNA turned out to be 74%; the stoichiometry N is 8 and 4.
As for “MHV-68 LANA DNA binding domain, mLANA_(124–314) (domain or fragment)”, the stoichiometry N in [3] was 4; in data set [4], 2 and 4; in data set [5] it was 8.
With “kLANA_(k1109E, A1121E) (domain or fragment)”, the values for the stoichiometry N in [6] and in data set [7] were 4 and 2, respectively.
Turning to “KSHV LANA DNA binding domain, kLANA_(1019–1150) (domain or fragment)”, the stoichiometry N in data set [8] was 2 and 4; in [9] it was 2.
With “kLANA_(1008–1150 (K1109E)) (domain or fragment)”, in data set [10], the percent of species present as bent tetramer was found to be 20%; the percent of species present as dimer is < 80%; the stoichiometry N was 2 and 4. For the same substance, the stoichiometry N in [11] was 2 and 4.
As to kLBS1-2, the Kd (commonly the concentration at which binding is half-saturated) in data set [12] is 71.7 nM. In other words, the double-digit nanomolar range.
